# Assay results published in patent US20050054571A1, “Antimicrobial proteins from the SPO1 bacteriophage” (Rice University, priority 2003, published 2005).
# “Also recorded” adds a separate entry of the source. Like-named read-outs stand apart in the source and are kept apart here.
# B1: Gene 46: product of SPO1 host-takeover gene 46, SEQ ID NO: 10 (protein)
# chain: MMTEDQKFKYLTKIEELEAGCFSDWTKEDITGDLKYLKKGIIEESIELIRAVNGLTYSEELHDFTQEIIEELDISPL
# modifications: SPO1 Bacteriophage
# B2: Gene 39: product of SPO1 host-takeover gene 39, SEQ ID NO: 3 (protein)
# chain: MELNLDIYVDYKDKRYKAEGYYGPSVGDLVLIFMDMELEGATVQEVARIEGSEIHLRTPNGNEPSYRYMGQYLILKPYGSSDPRGDILVHEDVQYVRVDAQAMPGDLIEALEPNKLPFSGKRFKYRPAVLEVEYVLTKDEQVLQLENGKSYSGAYRVLIPRMGVLPPKTHIYTTHKHVFMEDVFVLGNSYELSSPNDVEMTPIHAVFTGFSKNRDEAIFVNPYYNDDGVTGTMITVSDLLTGKWDITPLVPKKGV
# modifications: SPO1 Bacteriophage
# B3: Gene 38: product of SPO1 host-takeover gene 38, SEQ ID NO: 2 (protein)
# chain: MSVQIKHGNKTFVVDPSGDVKEGSYVLYLYEYRLGEVDVGRVSEVANDGRLYLDGPGVIVTLDQPFILLKEVVEEEEDEDDRIDAEFHNDPLLRKLENTTEKLTPEETQLAQWTTMTRVFSHDLKKGIPYAIKHKNSGNILYGLYSGLLNPVTALFRHLNEESKISIEQLKSGLIEIYEVVEDEEESIWN
# modifications: SPO1 Bacteriophage
# B4: Gene 42: product of SPO1 host-takeover gene 42, SEQ ID NO: 6 (protein)
# chain: MRKFVTTLTASPRNKKVGNHRLEISPFVSLRRYYYFNTAICIENPVTREFAIDDSYGSLSTNQNCAQYRQYFSLGGYKEVSLEEIHAV
# modifications: SPO1 Bacteriophage
# B5: Gene 57: product of SPO1 host-takeover gene 57, SEQ ID NO: 21 (protein)
# chain: MTLFIAGVTLEEVREATVSALFVKLEQEKKALYLGAGSEDSLNLCKSTLDKVQEDYPLDDMEKDYLRDLLQFWLSRLFLGDGFEGEIPDSSEDLRRTATTAFTYTAAIRHYCM
# modifications: SPO1 Bacteriophage
# B6: Gene 40: product of SPO1 host-takeover gene 40, SEQ ID NO: 4 (protein)
# chain: MHIYTYWGLKYVPSNSTMVAKEGDLILLGNEVHKVVKVLHRFRNITDLQITNWKGTETRYNLHVTEYKVLVPYDTHKEENEAMSDSLITHNGKDYVLCKIPARVGDLIRTEDKRVWEVLQKSKDGLVLYNEEKGEQRSAVYSEIGPYHVLVPRDTDTHTPTREELAAVIMNKAFTRTETQDSQEDTGTHKGLGLTGTDLYHSLRDLDAKVQSGYYTATENEEDVKSEIEATKKHMKAVKESGKTVNDYRKEENTKRCKLKALTNKFNRLFLKSVIDTDSLQVGKAYLIGGRDMKNVHGLYTGTTFDQQHANFLIVETDRMHRTLTVSAEQLFAEERHIVDIEKRVEQTED
# modifications: SPO1 Bacteriophage
# B7: Gene 47: product of SPO1 host-takeover gene 47, SEQ ID NO: 11 (protein)
# chain: MDWTKMTFMGTVDEVKEIWNGLEEAGRLYAVWLSDDHVYGIVDVNEEGLFCLGWVSDISPESLQNMLGGGAELFESYEDVLSEHGGSIAIRVEV
# modifications: SPO1 Bacteriophage
# B8: Gene 52: product of SPO1 host-takeover gene 52, SEQ ID NO: 16 (protein)
# chain: MTHFISIATYIYALVSAGFIGGWHDEESWIKDTEYEHGGYHMIIDTPAVVNYSLEYGNYQWIFQKYMKEGKVTVERFYRNSLDIPKEILTDEALAFIKDWDENANEYELHAGEGVLYFKYEGEEKGYVIPMAYAGEIMFVPDEDAEKALEIINSQKKY
# modifications: SPO1 Bacteriophage
# B9: Gene 45: product of SPO1 host-takeover gene 45, SEQ ID NO: 9 (protein)
# chain: MMMDKQVEEVKKHYPIVEDWSVIVARKEDDCMTVTDAVPFILAGYKNVSYEMDDIVVLCSEPIGLTWEDVRFLKNHEGSVSFEEIGYEDKAMVYHVDLG
# modifications: SPO1 Bacteriophage
# B10: Gene 41: product of SPO1 host-takeover gene 41, SEQ ID NO: 5 (protein)
# chain: MEKLPNTVVKVHGEGMESKLFPRKLHKDTNSILREDLVSACQEHIEALVEGMIAHGDGRKVAELDTSTQYYWHLKLVEYTPIPGRTQHYVDLVDGTNPDVCYFSLCDCSGDNITDRRWSNMVKRLQNPEEDIAKTLRCYFRQDAGMPSWIEYPQ
# modifications: SPO1 Bacteriophage
# B11: Gene 43: product of SPO1 host-takeover gene 43, SEQ ID NO: 7 (protein)
# chain: MIQLSERQQDLLQVAEKYEQCHIEFYTAQSRLFGTEIMGEVVKTSLGTLKIAHPEEDLFEVALAYLASKKDILTAQERKDVLFYIQNNLC
# modifications: SPO1 Bacteriophage
# B12: Gene 48: product of SPO1 host-takeover gene 48, SEQ ID NO: 12 (protein)
# chain: MPYSKITVPVLVGEGLTEWDVIDVMRETHPPTVEDQYHYHTFDSMQNRTIFVLENPLYPDVDKIPEKVLGIAVDALEDMLDNVPVEDLPVTEEQGNVKRFTTKLASIVFDVFLIIPDFVSVTAKEE
# modifications: SPO1 Bacteriophage
# Tests used:
# Format in all cases: cell-based
# bacteria = experiment: Toxicity or lethality of expression of cloned SPO1 genes, bacterium not given
# Excerpt: (§1) For analysis of antimicrobial activity we first cloned most of the 24 host-takeover genes (genes 37-60) singly or in multiple gene combinations into a B. subtilis/E. coli shuttle vector (pPW19) under control of an IPTG-inducible promoter (Wei and Stewart, 1993). […] These remaining genes are being cloned using expression vectors with more tightly regulated promoters, such as pJONEX4 (Sayers, 1996), pET101, or pX (Kim et al., 1996). The transformed E. coli and B. subtilis were used to determine the antimicrobial activity, if any, of the cloned genes. The effect of induction on bacterial growth and viability was measured both in liquid medium and by colony formation. Definitive establishment of lethality was shown by loss of the ability to form colonies even after removal from the inducing agent. Indication of probable lethality was based on total inability to form colonies under inducing conditions.
# In cells growing in liquid medium, expression of the cloned gene 44 was induced at time 0. At subsequent times, the number of cells remaining viable was measured by plating in the absence of inducer. More than 99% of the cells were killed within three hours.
# E. coli = experiment: Effect of induced expression of cloned SPO1 genes on growth and viability of E. coli (liquid medium and colony formation); details: cloned gene(s) expressed from IPTG-inducible promoter, * = lethality conclusion based on failure to clone, ** = data not conclusive
# Excerpt: as §1
# B. subtilis = experiment: Effect of induced expression of cloned SPO1 genes on growth and viability of B. subtilis (liquid medium and colony formation); details: cloned gene(s) expressed from IPTG-inducible promoter, * = lethality conclusion based on failure to clone, ** = data not conclusive
# Excerpt: as §1
molecule,measurement,setting,value
"Gene 37: product of SPO1 host-takeover gene 37, SEQ ID NO: 1 (MSDVIIPFLTSAVTAFIVAYLLDRWYIKRRR; SPO1 Bacteriophage)",toxicity or lethality of expression,bacteria,lethal
same,"Lethality, E. coli",E. coli,Lethal *
"Gene 58: product of SPO1 host-takeover gene 58, SEQ ID NO: 22 (MTLAGYRVDSCNGCGKAYLVGESHDRKKCAECASK; SPO1 Bacteriophage)","Lethality, B. subtilis",B. subtilis,No effect
same,"Lethality, E. coli",E. coli,Mildly toxic
B1,"Lethality, B. subtilis",B. subtilis,Mildly Toxic
same,toxicity or lethality of expression,bacteria,lethal but with diminished efficiency
same,"Lethality, E. coli",E. coli,Lethal
B2,toxicity or lethality of expression,bacteria; listed as 39,lethal effect
same,"Lethality, E. coli",E. coli,Lethal
B3,"Lethality, B. subtilis",B. subtilis,No effect **
same,"Lethality, E. coli",E. coli,Highly toxic
B4,"Lethality, B. subtilis",B. subtilis; listed as 42,no toxic effect
same,"Lethality, E. coli",E. coli; listed as 42,no toxic effect
B5,"Lethality, B. subtilis",B. subtilis,No effect
same,"Lethality, E. coli",E. coli,Mildly toxic
B6,"Lethality, B. subtilis",B. subtilis; listed as 40,only mildly toxic; also recorded: Inconsistent
same,"Lethality, E. coli",E. coli; listed as 40,only mildly toxic
B7,"Lethality, B. subtilis",B. subtilis; listed as 47,little or no effect; also recorded: No effect
same,"Lethality, E. coli",E. coli; listed as 47,little or no effect; also recorded: No effect
B8,"Lethality, E. coli",E. coli; listed as 52,Lethal
B9,"Lethality, B. subtilis",B. subtilis,Mildly Toxic
same,toxicity or lethality of expression,bacteria,toxic but not lethal
same,"Lethality, E. coli",E. coli,Toxic
B10,"Lethality, B. subtilis",B. subtilis; listed as 41,lethal; also recorded: Lethal *
same,"Lethality, E. coli",E. coli; listed as 41,only a mild effect; also recorded: Mildly Toxic
B11,"Lethality, B. subtilis",B. subtilis; listed as 43,too inconsistent to permit any conclusion; also recorded: Indeterminate
same,"Lethality, E. coli",E. coli; listed as 43,too inconsistent to permit any conclusion; also recorded: Indeterminate
B12,"Lethality, B. subtilis",B. subtilis; listed as 48,strongly toxic but not lethal; also recorded: Strongly Toxic
same,"Lethality, E. coli",E. coli; listed as 48,strongly toxic but not lethal; also recorded: Strongly Toxic
